Changes are numbered by the printed parent chain. Names and notes keep the numbering of the source.
B1: ROR1 ECD Peptide 2 (peptide)
peptide: RSTIYGSRLRINLDTTDTGYFQ
notes: synthetic linear peptide; insoluble in PBS, repeated in 25% DMSO
B2: P3A1 VNAR with His6Myc tag (VNAR)
VNAR: TRVDQTPRTATKETGESLTINCVLTDTSYGLYSTSWFRKNPGTTDWERMSIGGRYVESVNKGAKSFSLRIKDLTVADSATYYCKAREARHPWLRQWYDGAGTVLTVNQ
notes: shark VNAR domain; also called P3A1 6xHis myc
B3: P3A1-[G4S]5-P3A1 homodimer with His6Myc tag (VNAR)
chain: TRVDQTPRTATKETGESLTINCVLTDTSYGLYSTSWFRKNPGTTDWERMSIGGRYVESVNKGAKSFSLRIKDLTVADSATYYCKAREARHPWLRQWYDGAGTVLTVNGGGGSGGGGSGGGGSGGGGSGGGGSTRVDQTPRTATKETGESLTINCVLTDTSYGLYSTSWFRKNPGTTDWERMSIGGRYVESVNKGAKSFSLRIKDLTVADSATYYCKAREARHPWLRQWYDGAGTVLTVNQASGAHHHHHHGAEFEQKLISEEDL
notes: genetic fusion of two VNAR domains; also called P3A1 dimer 6xHis myc; P3A1-P3A1
B4: P3A1 dimer without tag (VNAR)
chain: TRVDQTPRTATKETGESLTINCVLTDTSYGLYSTSWFRKNPGTTDWERMSIGGRYVESVNKGAKSFSLRIKDLTVADSATYYCKAREARHPWLRQWYDGAGTVLTVNGGGGSGGGGSGGGGSGGGGSGGGGSTRVDQTPRTATKETGESLTINCVLTDTSYGLYSTSWFRKNPGTTDWERMSIGGRYVESVNKGAKSFSLRIKDLTVADSATYYCKAREARHPWLRQWYDGAGTVLTVN
notes: also called P3A1 dimer No tag
B5: P3A1 VNAR with 6xHis tag (VNAR, not shown: small tags and cut ends)
VNAR: TRVDQTPRTATKETGESLTINCVLTDTSYGLYSTSWFRKNPGTTDWERMSIGGRYVESVNKGAKSFSLRIKDLTVADSATYYCKAREARHPWLRQWYDGAGTVLTVN
notes: shark VNAR domain; also called P3A1 6xHis
B6: BA11 humanised VNAR (VNAR)
VNAR: TRVDQSPSSLSASVGDRVTITCVLTDTSYPLYSTYWYRKNPGSSNKEQISISGRYSESVNKGTKSFTLTISSLQPEDSATYYCRAMSTNIWTGDGAGTKVEIK
B7: BA11-S-maleimide-peg-fluorescein (VNAR)
VNAR: B6 VNAR
modifications: C-terminal thiol joined to maleimide-peg-fluorescein
notes: also called BA11-S-mal-Fl
B8: BA11 C-terminal cysteine derivative (VNAR)
VNAR: B6 VNAR
modifications: additional C-terminal cysteine from cysteine cleavage of the intein fusion
notes: also called BA11-cys
B9: BA11-aminoxy (VNAR)
VNAR: B6 VNAR
modifications: C-terminal aminoxy from dioxyamine cleavage of the intein fusion
B10: BA11-cys-maleimide-peg-fluorescein (VNAR)
VNAR: B6 VNAR
modifications: C-terminal cysteine joined to maleimide-peg-fluorescein
notes: also called BA11-cys-mal-Fl
B11: BA11-oxime-fluorescein (VNAR)
VNAR: B6 VNAR
modifications: C-terminal aminoxy joined by oxime to benzaldehyde-peg-fluorescein
B12: BA11 C-terminal thiol derivative (VNAR)
VNAR: B6 VNAR
modifications: C-terminal thiol from cysteamine cleavage of the intein fusion
notes: also called BA11-SH
B13: P3A1-P3A1-S-mal-vcMMAE (VNAR)
chain: TRVDQTPRTATKETGESLTINCVLTDTSYGLYSTSWFRKNPGTTDWERMSIGGRYVESVNKGAKSFSLRIKDLTVADSATYYCKAREARHPWLRQWYDGAGTVLTVNGGGGSGGGGSGGGGSGGGGSGGGGSTRVDQTPRTATKETGESLTINCVLTDTSYGLYSTSWFRKNPGTTDWERMSIGGRYVESVNKGAKSFSLRIKDLTVADSATYYCKAREARHPWLRQWYDGAGTVLTVNQASGAHHHHHHGAEFEQKLISEEDLG
modifications: chain 1 pos 265 (C-terminal Gly, written G): carboxyl amidated with cysteamine (intein cleavage); its thiol joined by thioether to maleimide MC vc PAB MMAE
B14: P3A1-P3A1-Ox-MMAE (VNAR)
chain: B13 chain
modifications: chain 1 pos 265 (C-terminal Gly, written G): carboxyl derivatised with O,O'-1,3-propanediylbishydroxylamine (C-terminal aminoxy), joined by oxime to benzaldehyde PEG4 MMAE (non-cleavable)
notes: linker as for m77
B15: P3A1-P3A1-Ox-vcMMAE (VNAR)
chain: B13 chain
modifications: chain 1 pos 265 (C-terminal Gly, written G): carboxyl derivatised with O,O'-1,3-propanediylbishydroxylamine (C-terminal aminoxy), joined by oxime to benzaldehyde PEG2 vc PAB MMAE
notes: linker as for m77
B16: B1 G2 (loop-grafted humanised B1) (VNAR)
VNAR: TRVDQSPSSLSASVGDRVTITCVLTGANYGLASTYWYRKNPGSSNQERISISGRYSESVNKRTMSFTLTISSLQPEDSATYYCRAYPWGAGAPWLVQWYDGAGTKVEIKQ
notes: humanised VNAR
B17: B1 humanised V7 (VNAR)
VNAR: B16 VNAR with T1A, R2S, L10A, V18L, L24V, S33A, R84K, V106L, I108V
notes: humanised VNAR; also called B1V7
B18: B1 humanised V5 (VNAR)
VNAR: B16 VNAR with T1A, R2S, L24V, S33A, R84K
notes: humanised VNAR; also called B1V5
B19: B1 G1 (loop-grafted humanised B1) (VNAR)
VNAR: B16 VNAR with Q46K, R48Q, R62G, M64K
notes: humanised VNAR
B20: P3A1 G1 dimer (VNAR)
chain: TRVDQSPSSLSASVGDRVTITCVLTDTSYGLYSTYWYRKNPGSSNKEQISISGRYSESVNKGTKSFTLTISSLQPEDSATYYCRAREARHPWLRQWYDGAGTKVEIKGGGGSGGGGSGGGGSGGGGSGGGGSTRVDQSPSSLSASVGDRVTITCVLTDTSYGLYSTYWYRKNPGSSNKEQISISGRYSESVNKGTKSFTLTISSLQPEDSATYYCRAREARHPWLRQWYDGAGTKVEIKQASGAHHHHHHGAEFEQKLISEEDLG
notes: humanised VNAR dimer
B21: D3 humanised EL V2 (VNAR)
VNAR: ASVNQSPSSLSASVGDRVTITCVLTDTSYGLYSTSWFRKNPGTTDWERMSIGGRYVESVNKRAKSFTLTISSLQPEDFATYYCKAQSGMAISTGSGHGYNWYDGAGTKVEIK
notes: also called D3 EL V2
B22: D3 humanised EL V4 (VNAR)
VNAR: B21 VNAR with F37Y, R38Q, K39Q, N40K
notes: also called D3 EL V4
B23: P3A1 V1 dimer (VNAR)
chain: TRVDQSPSSLSASVGDRVTITCVLTDTSYGLYSTSWFRKNPGTTDWERMSIGGRYVESVNKGAKSFTLTISSLQPEDFATYYCKAREARHPWLRQWYDGAGTKVEIKGGGGSGGGGSGGGGSGGGGSGGGGSTRVDQSPSSLSASVGDRVTITCVLTDTSYGLYSTSWFRKNPGTTDWERMSIGGRYVESVNKGAKSFTLTISSLQPEDFATYYCKAREARHPWLRQWYDGAGTKVEIKQASGAHHHHHHGAEFEQKLISEEDLG
notes: humanised VNAR dimer
B24: P3A1 G2 dimer (VNAR)
chain: B23 chain with S35Y, F37Y, V56S, F78S, K84R, S167Y, F169Y, V188S, F210S, K216R
notes: humanised VNAR dimer
B25: D3 humanised ADV2 (VNAR)
VNAR: TRVDQSPSSLSASVGDRVTITCVLTDTSYGLYSTSWFRKNPGTTDWERMSIGGRYSESVNKGAKSFTLTISSLQPEDSATYYCKAQSGMAISTGSGHGYNWYDGAGTKVEIKQ
notes: also called D3 AD V2

Molecular target: T1, D3 VNAR
T1 construct: shark VNAR domain; also called D3 WT; D3 monomer; not shown: C-terminal His6 or His6Myc tag (His6Myc in flow cytometry)
Test: competition ELISA: D3 pre-incubated with the peptide (25% DMSO), residual binding to coated huROR1-Fc

T1 sequence (chain, as listed by the source): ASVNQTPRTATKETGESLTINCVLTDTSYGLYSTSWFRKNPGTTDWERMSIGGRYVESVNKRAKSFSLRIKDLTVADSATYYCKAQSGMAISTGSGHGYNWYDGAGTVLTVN

Binder | binding result
CQPWNSQYPHTHTFTALRFP (synthetic linear peptide) [ROR1 ECD Peptide 3] | no binding
QCVATNGKEVVSSTGVLFVKFGPPPTASPGYSDEYE (synthetic linear peptide) [ROR1 ECD Peptide 4] | no binding
B1 | no binding
YMESLHMQGEIENQI (synthetic linear peptide) [ROR1 ECD Peptide 1] | no binding

Molecular target: T2, human ROR1 extracellular domain-Fc fusion (human, UniProt Q01973 30-406)
T2 construct: extracellular domain; also called hROR1; ROR1-hFc
Test: SPR

Binder | Kd [nM] | koff [s⁻¹] | kon [M⁻¹ s⁻¹]
B2 | 25.6 | 0.025 | 980000
B3 | 0.35 | 0.000637 | 2.08e+06
B4 | 0.36 | 0.000598 | 1.67e+06
B5 | 7.8 | 0.0206 | 2.92e+06

Molecular target: T3, human ROR2 extracellular domain-Fc fusion (human, UniProt Q01974 34-403)
T3 construct: extracellular domain; also called hROR2; ROR2-hFc
Test: SPR

Binder | binding result
B2 | no binding
B4 | no binding
B5 | no binding

Molecular target: T4, cynomolgus serum albumin (cynomolgus)
T4 construct: also called CSA; Cyano
Test: SPR, CSA on chip, pH 7.4

T4 sequence (A2V9Z4 25-608): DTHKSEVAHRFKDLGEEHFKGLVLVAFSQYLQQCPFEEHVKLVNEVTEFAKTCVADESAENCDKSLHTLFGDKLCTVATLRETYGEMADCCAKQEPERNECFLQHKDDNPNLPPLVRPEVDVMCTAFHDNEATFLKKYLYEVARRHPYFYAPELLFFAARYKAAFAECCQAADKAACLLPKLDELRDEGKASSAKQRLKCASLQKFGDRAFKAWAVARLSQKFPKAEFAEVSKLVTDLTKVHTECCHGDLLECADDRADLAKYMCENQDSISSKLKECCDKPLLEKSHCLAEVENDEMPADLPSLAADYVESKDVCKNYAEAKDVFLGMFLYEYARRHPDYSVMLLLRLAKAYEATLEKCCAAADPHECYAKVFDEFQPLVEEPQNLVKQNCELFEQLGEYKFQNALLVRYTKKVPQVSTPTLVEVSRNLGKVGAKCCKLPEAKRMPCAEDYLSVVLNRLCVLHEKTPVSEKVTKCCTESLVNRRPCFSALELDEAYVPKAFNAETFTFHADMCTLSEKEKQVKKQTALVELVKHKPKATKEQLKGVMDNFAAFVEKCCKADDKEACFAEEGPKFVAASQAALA

Binder | Kd [nM]
B6 | 3.36
B7 | 2.3
B8 | 2.1
B9 | 7.97
B10 | 3.68
B11 | 1.75
B12 | 3.41

Molecular target: T5, D3-[G4S]5-D3 homodimer
T5 construct: also called D3-D3; D3D3; not shown: C-terminal His6 or His6Myc tag (His6Myc in flow cytometry)
Test: competition ELISA: D3-D3 pre-incubated with the peptide (25% DMSO), residual binding to coated huROR1-Fc

T5 sequence (chain, as listed by the source): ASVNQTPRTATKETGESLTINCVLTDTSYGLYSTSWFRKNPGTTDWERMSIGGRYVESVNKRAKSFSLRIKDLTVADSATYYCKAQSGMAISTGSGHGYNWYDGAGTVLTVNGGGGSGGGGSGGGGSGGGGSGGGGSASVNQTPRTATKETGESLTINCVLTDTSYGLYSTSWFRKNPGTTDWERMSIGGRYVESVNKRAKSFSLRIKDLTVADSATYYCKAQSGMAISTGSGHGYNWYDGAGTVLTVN

Binder | binding result
CQPWNSQYPHTHTFTALRFP (synthetic linear peptide) [ROR1 ECD Peptide 3] | no binding
QCVATNGKEVVSSTGVLFVKFGPPPTASPGYSDEYE (synthetic linear peptide) [ROR1 ECD Peptide 4] | no binding
B1 | no binding
YMESLHMQGEIENQI (synthetic linear peptide) [ROR1 ECD Peptide 1] | no binding

Molecular target: T2, human ROR1 extracellular domain-Fc …
Test: SPR
Remark: another data set of the same source

Binder | Kd [nM] | koff [s⁻¹] | kon [M⁻¹ s⁻¹]
B3 | 1.61 | 0.00296 | 1.86e+06
B13 | 0.59 | 0.0026 | 4.96e+06
B14 | 0.78 | 0.0032 | 4.2e+06
B15 | 1.43 | 0.00277 | 2.07e+06

Molecular target: T6, B1 VNAR (C-terminal His6 or His6Myc tag, not said which)
T6 construct: shark VNAR domain; also called VNAR B1; B1 monomer
Test: competition ELISA: B1 pre-incubated with the peptide, residual binding to coated huROR1-Fc

T6 sequence (chain, as listed by the source): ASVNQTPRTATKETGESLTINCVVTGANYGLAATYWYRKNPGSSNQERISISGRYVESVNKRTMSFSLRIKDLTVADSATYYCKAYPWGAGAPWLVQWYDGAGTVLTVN

Binder | binding result
CQPWNSQYPHTHTFTALRFP (synthetic linear peptide) [ROR1 ECD Peptide 3] | no binding (tested: 10 uM)
QCVATNGKEVVSSTGVLFVKFGPPPTASPGYSDEYE (synthetic linear peptide) [ROR1 ECD Peptide 4] | no binding (tested: 10 uM)
B1 | no binding (tested: 10 uM)
YMESLHMQGEIENQI (synthetic linear peptide) [ROR1 ECD Peptide 1] | no binding (tested: 10 uM)

Molecular target: T2, human ROR1 extracellular domain-Fc …
Test: SPR, hROR1 ECD-Fc on chip

Binder | Kd [nM] | koff [s⁻¹] | kon [M⁻¹ s⁻¹]
B16 | 45.9 | 0.0079 | 185000
B17 | 0.77 | 5.54e-05 | 77400
B18 | 0.74 | 3.85e-05 | 52000
B19 | 82.8 | 0.0162 | 220000
B20 | 0.43 | 0.00147 | 4.3e+06
B21 | 18.9 | – | 1.85e+06
B22 | 58.5 | ~0.0545 | 1.38e+06
B23 | 0.18 | 0.000846 | 4.78e+06
B24 | 0.77 | 0.00119 | 1.88e+06
B25 | 51.6 | 0.00236 | 45800

Molecular target: T4, cynomolgus serum albumin
Test: SPR, CSA on chip, pH 5.5

Binder | Kd [nM]
B6 | 1.11
B7 | 7.01
B10 | 8.21
B11 | 5.54
B12 | 6.74
